Assay results taken from patent US20170137795A1 (NOVOZYMES A S, published 2017).
Where a chain is given by its changes, count along the chain named.

T1: Rhizomucor miehei lipase (RmL) mature protein (Rhizomucor miehei, UniProt P19515 95-363)
T1 construct: Expressed in Aspergillus oryzae ToC1512 from the gene with its prepropeptide; The mature part is the same in all RMLPP variants; also called RmL WT; mature protein of the lipase
T1 sequence: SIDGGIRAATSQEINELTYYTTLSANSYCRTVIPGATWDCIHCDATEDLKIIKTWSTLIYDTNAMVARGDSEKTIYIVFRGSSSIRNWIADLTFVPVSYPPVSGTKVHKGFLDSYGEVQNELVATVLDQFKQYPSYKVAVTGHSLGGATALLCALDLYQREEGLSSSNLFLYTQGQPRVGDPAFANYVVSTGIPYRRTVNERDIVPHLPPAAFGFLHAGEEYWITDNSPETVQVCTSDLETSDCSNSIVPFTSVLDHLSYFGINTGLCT

B1: propeptide of RmL (wild type) (peptide)
peptide: VPIKRQSNSTVDSLPPLIPSRTSAPSSSPSTTDPEAPAMSRNGPLPSDVETKYGMALNATSYPDSVVQAM
notes: also called RmL WT propeptide
B2: propeptide of RMLPP0006 (N-63Q N-13Q) (peptide)
peptide: B1 peptide with N8Q, N58Q

Experiments:
[1] = target: T1, Rhizomucor miehei lipase (RmL) mature …; assay: native PAGE, column HMW band (taken by the filing as lipase associated with propeptide)
Method: (§1) The native PAGE was casted by first pouring the Resolving gel (4.0 mL 30% Acrylamide (Acrylamide-Bis-acrylamide solution); 2.5 mL 1.5M Tris (pH8.8); 0.1 mL 10% Ammonium per sulphate (APS); 0.004 mL TEMED; 3.3 mL water), followed by overlaying with butanol-water and allowing to polymerize for 30-45 minutes. The butanol-water was washed off and then the stacking gel (1.7 mL 30% Acrylamide (Acrylamide-Bis-acrylamide solution); 1.25 mL 1.5M Tris (pH6.8); 0.1 mL 10% Ammonium per sulphate (APS); 0.01 mL TEMED; 6.8 mL water), was poured over the polymerized resolving gel, immediately followed by insertion of the comb. This was allowed to polymerize for approx. 15 minutes. The protein sample (culture supernatant) was mixed with loading dye (5× composition (2 mL): 0.62 mL 1M Tris pH6.8; 0.1 mL 1% Bromophenol blue; 1.0 mL Glycerol; 0.28 mL Water) and loaded in to the wells of the native PAGE. The gel was run in SDS-free electrophoresis buffer (3.0 g Tris base; 14.4 g Glycine; water up to 1 L) at constant current of 25 mA.

[2] = target: T1, Rhizomucor miehei lipase (RmL) mature …; assay: native PAGE of culture supernatant; HMW band, taken by the filing as lipase associated with propeptide
Method: as §1

| binding result [1] | binding result [2] | Binder |
| --- | --- | --- |
| binds |  | B1 |
|  | no binding | B2 |
